# B1: SG-3-00802 (peptide)
# peptide: MKVRPSVKPMCEKCKIIRRKGRVMVICENPKHKQRQG
# B2: CXCL11 (ligand, UniProt O14625 22-94, looked up)
# chain: FPMFKRGRCLCIGPGVKAVKVADIEKASIMYPSNNCDKIEVIITLKENKGQRCLNPKSKQARLIIKKVERKNF
# Legend:
# [1] = test system: Protein AMBP; test: Pull-down and mass spectrometry target capture; assay type: binding, human; conditions: 100.0 = no target protein observed in the control pulldown
# Description: (§1) To identify binding partners of SG-3-0020 in human cells, pull-down and mass spectrometry analysis were used (FIG. 15). Multiple target capture experiments were performed with SG-3-0020 and controls. Binding conditions and cross-linkers were varied to achieve maximum enrichment of peptide over controls. Nine putative binding partners to SG-3-0020 were identified using MS and were nominated for confirmation using CRISPR Knock Out (KO) Experiments (Table 12, FIG. 16). The enrichment ratio was calculated as described below: […]
# [2] = molecular target: T1, Prohibitin (Homo sapiens, UniProt P35232); test: Pull-down and mass spectrometry target capture; assay type: binding; conditions: 100.0 = no target protein observed in the control pulldown
# T1 construct: endogenous in cells
# T1 sequence (P35232 1-272): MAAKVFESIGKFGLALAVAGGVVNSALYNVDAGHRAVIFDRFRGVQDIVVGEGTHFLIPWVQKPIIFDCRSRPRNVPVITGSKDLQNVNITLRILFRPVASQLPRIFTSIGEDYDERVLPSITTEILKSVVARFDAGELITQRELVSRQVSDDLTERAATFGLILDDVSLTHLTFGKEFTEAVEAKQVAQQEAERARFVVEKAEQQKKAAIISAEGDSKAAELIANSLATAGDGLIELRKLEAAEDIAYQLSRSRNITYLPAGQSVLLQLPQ
# Description: as §1
# [3] = molecular target: T2, Tumor necrosis factor receptor superfamily member 4 (Homo sapiens, UniProt P43489); test: Pull-down and mass spectrometry target capture; assay type: binding; conditions: 100.0 = no target protein observed in the control pulldown
# T2 construct: endogenous in cells
# T2 sequence (P43489 29-277): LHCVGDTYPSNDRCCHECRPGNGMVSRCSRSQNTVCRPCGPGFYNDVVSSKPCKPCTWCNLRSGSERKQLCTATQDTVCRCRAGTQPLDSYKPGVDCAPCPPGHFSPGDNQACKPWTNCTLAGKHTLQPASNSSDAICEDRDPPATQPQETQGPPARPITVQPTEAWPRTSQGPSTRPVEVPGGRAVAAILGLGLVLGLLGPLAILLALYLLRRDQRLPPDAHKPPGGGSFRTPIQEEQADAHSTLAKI
# Description: as §1
# [4] = molecular target: T3, CD2 (cluster of differentiation 2) (Homo sapiens, UniProt P06729); test: Pull-down and mass spectrometry target capture; assay type: binding; conditions: 100.0 = no target protein observed in the control pulldown
# T3 construct: endogenous in cells
# T3 sequence (P06729 25-351): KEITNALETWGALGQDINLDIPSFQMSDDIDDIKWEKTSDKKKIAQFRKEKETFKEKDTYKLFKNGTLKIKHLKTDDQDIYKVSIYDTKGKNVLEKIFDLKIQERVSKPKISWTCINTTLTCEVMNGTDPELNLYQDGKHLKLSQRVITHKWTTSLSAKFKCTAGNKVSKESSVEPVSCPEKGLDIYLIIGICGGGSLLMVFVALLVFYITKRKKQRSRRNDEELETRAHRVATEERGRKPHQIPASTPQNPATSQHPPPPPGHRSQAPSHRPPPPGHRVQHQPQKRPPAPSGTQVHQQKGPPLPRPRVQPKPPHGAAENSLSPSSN
# Description: as §1
# [5] = molecular target: Tumor necrosis factor (Homo sapiens, UniProt P01375); test: Pull-down and mass spectrometry target capture; assay type: binding; set-up: endogenous in cells; conditions: 100.0 = no target protein observed in the control pulldown
# Description: as §1
# [6] = molecular target: Low-density lipoprotein receptor (Homo sapiens, UniProt P01130); test: Pull-down and mass spectrometry target capture; assay type: binding; set-up: endogenous in cells; conditions: 100.0 = no target protein observed in the control pulldown
# Description: as §1
# [7] = molecular target: Bone marrow stromal antigen 2 (Homo sapiens, UniProt Q10589); test: Pull-down and mass spectrometry target capture; assay type: binding; set-up: endogenous in cells; conditions: 100.0 = no target protein observed in the control pulldown
# Description: as §1
# [8] = molecular target: Cation-independent mannose-6-phosphate receptor (Homo sapiens, UniProt P11717); test: Pull-down and mass spectrometry target capture; assay type: binding; set-up: endogenous in cells; conditions: 100.0 = no target protein observed in the control pulldown
# Description: as §1
# [9] = molecular target: Teneurin-3 (Homo sapiens, UniProt Q9P273); test: Pull-down and mass spectrometry target capture; assay type: binding; set-up: endogenous in cells; conditions: 100.0 = no target protein observed in the control pulldown
# Description: as §1
# [10] = test system: naïve CD4+ and CD8+ T cells (Th0); conditions: incubation of a naïve T cell with the polypeptide; cited from earlier work
# [11] = test system: primary human unstimulated T cells; test: CRISPR knock-out target validation in T cells stimulated with anti-CD3 and peptide; assay type: cell-based; conditions: targets identified from mass spectrometry
# Description: Functional validation was performed by CRISPR knock-out to confirm target effects on SG-3-0020-mediated activity. […] RNPs were introduced into primary human unstimulated T cells via Nucleofection and cells were cultured for 96 hours. OR1A1 served as negative control and CD3E was used as positive control. Post knock-down T cells were stimulated in vitro culture of Purified T cells with anti-CD3 (0.1 μg/mL) and SG-3-05429 (mutant SG-3-0020 with improved activity) (10 μM) and was incubated for 48 hours. A decrease in IFN-γ secretion (FIG. 17A) and a decrease in activated CD4 and CD8 T cell subsets was also observed (CD25+, PD-1+=Markers of T cell activation) (FIG. 17B) was observed after target knock-down compared to the negative control (OR1A1). […] Activation of CD2 has the potential to be a therapeutic opportunity.
# [12] = molecular target: T4, CHRM5 (human, UniProt P08912 1-532); test: cell-based or functional assay
# T4 sequence (looked up): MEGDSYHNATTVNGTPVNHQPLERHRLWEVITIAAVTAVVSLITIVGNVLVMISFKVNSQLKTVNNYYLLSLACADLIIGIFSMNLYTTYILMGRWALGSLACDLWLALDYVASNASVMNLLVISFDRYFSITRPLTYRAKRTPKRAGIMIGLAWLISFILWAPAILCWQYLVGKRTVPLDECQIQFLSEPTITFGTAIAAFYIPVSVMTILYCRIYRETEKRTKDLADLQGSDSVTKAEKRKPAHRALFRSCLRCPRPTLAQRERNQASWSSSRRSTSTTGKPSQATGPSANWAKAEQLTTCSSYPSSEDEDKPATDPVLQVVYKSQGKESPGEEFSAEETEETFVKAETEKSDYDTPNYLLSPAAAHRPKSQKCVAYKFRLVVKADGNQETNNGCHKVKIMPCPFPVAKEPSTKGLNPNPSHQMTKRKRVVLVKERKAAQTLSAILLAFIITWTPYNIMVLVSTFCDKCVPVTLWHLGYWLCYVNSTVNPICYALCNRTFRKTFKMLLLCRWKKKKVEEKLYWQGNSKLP
# [13] = molecular target: T5, HCRTR2 (human, UniProt O43614 1-444); test: cell-based or functional assay
# T5 sequence (looked up): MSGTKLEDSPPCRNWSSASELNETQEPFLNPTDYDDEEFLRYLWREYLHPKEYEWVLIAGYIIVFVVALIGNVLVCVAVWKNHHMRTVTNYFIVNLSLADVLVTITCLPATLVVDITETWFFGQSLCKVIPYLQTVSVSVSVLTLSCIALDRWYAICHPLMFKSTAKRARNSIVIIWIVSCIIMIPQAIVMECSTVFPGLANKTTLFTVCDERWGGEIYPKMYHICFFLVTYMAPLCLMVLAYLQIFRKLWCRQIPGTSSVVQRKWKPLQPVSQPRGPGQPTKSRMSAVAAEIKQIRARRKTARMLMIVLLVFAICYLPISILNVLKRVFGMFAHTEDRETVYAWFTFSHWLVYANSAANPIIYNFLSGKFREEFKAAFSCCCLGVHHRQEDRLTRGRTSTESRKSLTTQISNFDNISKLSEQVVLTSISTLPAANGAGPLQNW
# [14] = molecular target: T6, CCR9 (human, UniProt P51686 1-369, limits assumed); test: cell-based or functional assay
# T6 sequence (looked up): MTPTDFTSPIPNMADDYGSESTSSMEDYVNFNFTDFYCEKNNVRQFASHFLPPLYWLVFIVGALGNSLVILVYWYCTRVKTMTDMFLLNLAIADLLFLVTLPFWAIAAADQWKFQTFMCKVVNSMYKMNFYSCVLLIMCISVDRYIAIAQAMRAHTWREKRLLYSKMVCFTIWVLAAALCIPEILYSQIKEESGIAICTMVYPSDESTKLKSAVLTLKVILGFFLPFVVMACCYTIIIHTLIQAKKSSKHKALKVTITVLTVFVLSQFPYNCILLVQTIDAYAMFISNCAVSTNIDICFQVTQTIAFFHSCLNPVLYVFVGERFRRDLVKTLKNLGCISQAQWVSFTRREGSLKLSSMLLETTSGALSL
# [15] = molecular target: CXCR4 (human, UniProt P61073 1-352); test: cell-based or functional assay
# [16] = molecular target: T7, CXCR3 (human, UniProt P49682 1-368); test: cell-based or functional assay
# T7 sequence (looked up): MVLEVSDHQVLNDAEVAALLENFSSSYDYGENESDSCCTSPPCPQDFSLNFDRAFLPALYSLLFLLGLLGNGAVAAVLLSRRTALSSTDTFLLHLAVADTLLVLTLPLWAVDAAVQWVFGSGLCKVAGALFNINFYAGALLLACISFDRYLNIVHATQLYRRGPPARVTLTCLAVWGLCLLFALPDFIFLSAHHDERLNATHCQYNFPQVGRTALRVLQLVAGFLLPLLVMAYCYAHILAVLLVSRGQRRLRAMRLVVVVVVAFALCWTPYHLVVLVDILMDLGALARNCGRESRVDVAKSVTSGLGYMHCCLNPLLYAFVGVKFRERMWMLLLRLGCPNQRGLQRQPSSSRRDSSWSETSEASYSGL
# [17] = molecular target: T8, MRGPRX2 (human, UniProt Q96LB1 1-330); test: cell-based or functional assay
# T8 sequence (looked up): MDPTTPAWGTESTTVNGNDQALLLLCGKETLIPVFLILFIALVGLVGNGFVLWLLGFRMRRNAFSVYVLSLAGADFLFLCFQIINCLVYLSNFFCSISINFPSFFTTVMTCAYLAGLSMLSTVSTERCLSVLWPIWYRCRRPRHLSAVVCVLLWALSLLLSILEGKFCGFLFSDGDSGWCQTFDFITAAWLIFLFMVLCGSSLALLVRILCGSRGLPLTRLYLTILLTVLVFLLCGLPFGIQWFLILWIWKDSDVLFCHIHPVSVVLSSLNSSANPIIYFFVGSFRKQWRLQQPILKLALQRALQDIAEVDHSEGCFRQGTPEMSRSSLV
# [18] = molecular target: SSTR1 (human, UniProt P30872 1-391); test: cell-based or functional assay
# [19] = molecular target: TSHR(L) (human, UniProt P16473-1 21-764, limits assumed); test: cell-based or functional assay
# [20] = molecular target: T7, CXCR3; test: CXCR3 activity assay with ligand, with SG-3-00802 or SG-3-05021 added
# Chain of SSTR1 (P30872 whole entry): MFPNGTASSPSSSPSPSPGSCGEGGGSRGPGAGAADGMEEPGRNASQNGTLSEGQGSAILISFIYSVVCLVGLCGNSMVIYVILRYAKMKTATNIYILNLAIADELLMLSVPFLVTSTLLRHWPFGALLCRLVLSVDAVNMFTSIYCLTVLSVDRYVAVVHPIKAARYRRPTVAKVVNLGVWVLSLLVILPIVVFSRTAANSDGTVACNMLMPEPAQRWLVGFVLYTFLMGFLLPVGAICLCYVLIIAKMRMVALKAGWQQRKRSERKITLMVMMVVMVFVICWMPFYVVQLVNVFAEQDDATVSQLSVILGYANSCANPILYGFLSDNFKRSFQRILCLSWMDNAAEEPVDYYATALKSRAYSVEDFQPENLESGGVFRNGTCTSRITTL
# Chain of TSHR(L) (P16473 21-764 limits assumed): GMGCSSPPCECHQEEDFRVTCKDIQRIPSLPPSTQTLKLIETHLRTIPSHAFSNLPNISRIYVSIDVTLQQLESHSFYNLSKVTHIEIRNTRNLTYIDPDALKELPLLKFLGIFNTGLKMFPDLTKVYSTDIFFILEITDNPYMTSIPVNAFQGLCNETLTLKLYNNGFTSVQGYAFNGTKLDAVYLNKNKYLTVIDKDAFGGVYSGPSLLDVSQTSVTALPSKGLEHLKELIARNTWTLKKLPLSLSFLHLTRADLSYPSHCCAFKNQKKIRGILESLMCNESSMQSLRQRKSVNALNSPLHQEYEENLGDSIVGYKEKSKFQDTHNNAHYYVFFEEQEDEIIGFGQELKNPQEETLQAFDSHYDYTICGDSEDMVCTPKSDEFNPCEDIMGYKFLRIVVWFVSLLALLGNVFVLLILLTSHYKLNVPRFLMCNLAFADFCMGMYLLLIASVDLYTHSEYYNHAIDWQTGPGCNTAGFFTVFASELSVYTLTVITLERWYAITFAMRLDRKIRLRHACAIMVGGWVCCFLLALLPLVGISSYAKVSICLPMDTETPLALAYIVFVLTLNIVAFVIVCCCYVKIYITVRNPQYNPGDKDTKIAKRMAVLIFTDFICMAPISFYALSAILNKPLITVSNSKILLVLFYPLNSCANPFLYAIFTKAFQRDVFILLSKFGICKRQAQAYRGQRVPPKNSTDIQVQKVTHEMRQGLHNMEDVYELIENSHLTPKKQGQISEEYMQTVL
# Chain of CXCR4 (P61073 whole entry): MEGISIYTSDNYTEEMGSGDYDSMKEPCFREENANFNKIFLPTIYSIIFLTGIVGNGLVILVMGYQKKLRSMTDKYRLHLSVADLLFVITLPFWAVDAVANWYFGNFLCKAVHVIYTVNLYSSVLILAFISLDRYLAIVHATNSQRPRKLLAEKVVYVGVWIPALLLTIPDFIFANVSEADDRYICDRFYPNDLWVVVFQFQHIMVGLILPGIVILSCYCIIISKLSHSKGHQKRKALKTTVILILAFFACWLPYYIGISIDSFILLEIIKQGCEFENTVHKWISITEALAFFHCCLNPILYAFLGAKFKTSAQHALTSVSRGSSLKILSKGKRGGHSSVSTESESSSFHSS
# Chain of Tumor necrosis factor (P01375 whole entry): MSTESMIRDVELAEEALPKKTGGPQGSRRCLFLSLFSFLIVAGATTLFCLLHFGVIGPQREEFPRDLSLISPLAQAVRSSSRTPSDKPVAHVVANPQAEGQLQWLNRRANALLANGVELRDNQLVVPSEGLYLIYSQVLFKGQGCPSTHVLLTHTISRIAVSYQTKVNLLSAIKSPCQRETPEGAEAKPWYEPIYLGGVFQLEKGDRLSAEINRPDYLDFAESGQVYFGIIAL
# Chain of Teneurin-3 (Q9P273 whole entry): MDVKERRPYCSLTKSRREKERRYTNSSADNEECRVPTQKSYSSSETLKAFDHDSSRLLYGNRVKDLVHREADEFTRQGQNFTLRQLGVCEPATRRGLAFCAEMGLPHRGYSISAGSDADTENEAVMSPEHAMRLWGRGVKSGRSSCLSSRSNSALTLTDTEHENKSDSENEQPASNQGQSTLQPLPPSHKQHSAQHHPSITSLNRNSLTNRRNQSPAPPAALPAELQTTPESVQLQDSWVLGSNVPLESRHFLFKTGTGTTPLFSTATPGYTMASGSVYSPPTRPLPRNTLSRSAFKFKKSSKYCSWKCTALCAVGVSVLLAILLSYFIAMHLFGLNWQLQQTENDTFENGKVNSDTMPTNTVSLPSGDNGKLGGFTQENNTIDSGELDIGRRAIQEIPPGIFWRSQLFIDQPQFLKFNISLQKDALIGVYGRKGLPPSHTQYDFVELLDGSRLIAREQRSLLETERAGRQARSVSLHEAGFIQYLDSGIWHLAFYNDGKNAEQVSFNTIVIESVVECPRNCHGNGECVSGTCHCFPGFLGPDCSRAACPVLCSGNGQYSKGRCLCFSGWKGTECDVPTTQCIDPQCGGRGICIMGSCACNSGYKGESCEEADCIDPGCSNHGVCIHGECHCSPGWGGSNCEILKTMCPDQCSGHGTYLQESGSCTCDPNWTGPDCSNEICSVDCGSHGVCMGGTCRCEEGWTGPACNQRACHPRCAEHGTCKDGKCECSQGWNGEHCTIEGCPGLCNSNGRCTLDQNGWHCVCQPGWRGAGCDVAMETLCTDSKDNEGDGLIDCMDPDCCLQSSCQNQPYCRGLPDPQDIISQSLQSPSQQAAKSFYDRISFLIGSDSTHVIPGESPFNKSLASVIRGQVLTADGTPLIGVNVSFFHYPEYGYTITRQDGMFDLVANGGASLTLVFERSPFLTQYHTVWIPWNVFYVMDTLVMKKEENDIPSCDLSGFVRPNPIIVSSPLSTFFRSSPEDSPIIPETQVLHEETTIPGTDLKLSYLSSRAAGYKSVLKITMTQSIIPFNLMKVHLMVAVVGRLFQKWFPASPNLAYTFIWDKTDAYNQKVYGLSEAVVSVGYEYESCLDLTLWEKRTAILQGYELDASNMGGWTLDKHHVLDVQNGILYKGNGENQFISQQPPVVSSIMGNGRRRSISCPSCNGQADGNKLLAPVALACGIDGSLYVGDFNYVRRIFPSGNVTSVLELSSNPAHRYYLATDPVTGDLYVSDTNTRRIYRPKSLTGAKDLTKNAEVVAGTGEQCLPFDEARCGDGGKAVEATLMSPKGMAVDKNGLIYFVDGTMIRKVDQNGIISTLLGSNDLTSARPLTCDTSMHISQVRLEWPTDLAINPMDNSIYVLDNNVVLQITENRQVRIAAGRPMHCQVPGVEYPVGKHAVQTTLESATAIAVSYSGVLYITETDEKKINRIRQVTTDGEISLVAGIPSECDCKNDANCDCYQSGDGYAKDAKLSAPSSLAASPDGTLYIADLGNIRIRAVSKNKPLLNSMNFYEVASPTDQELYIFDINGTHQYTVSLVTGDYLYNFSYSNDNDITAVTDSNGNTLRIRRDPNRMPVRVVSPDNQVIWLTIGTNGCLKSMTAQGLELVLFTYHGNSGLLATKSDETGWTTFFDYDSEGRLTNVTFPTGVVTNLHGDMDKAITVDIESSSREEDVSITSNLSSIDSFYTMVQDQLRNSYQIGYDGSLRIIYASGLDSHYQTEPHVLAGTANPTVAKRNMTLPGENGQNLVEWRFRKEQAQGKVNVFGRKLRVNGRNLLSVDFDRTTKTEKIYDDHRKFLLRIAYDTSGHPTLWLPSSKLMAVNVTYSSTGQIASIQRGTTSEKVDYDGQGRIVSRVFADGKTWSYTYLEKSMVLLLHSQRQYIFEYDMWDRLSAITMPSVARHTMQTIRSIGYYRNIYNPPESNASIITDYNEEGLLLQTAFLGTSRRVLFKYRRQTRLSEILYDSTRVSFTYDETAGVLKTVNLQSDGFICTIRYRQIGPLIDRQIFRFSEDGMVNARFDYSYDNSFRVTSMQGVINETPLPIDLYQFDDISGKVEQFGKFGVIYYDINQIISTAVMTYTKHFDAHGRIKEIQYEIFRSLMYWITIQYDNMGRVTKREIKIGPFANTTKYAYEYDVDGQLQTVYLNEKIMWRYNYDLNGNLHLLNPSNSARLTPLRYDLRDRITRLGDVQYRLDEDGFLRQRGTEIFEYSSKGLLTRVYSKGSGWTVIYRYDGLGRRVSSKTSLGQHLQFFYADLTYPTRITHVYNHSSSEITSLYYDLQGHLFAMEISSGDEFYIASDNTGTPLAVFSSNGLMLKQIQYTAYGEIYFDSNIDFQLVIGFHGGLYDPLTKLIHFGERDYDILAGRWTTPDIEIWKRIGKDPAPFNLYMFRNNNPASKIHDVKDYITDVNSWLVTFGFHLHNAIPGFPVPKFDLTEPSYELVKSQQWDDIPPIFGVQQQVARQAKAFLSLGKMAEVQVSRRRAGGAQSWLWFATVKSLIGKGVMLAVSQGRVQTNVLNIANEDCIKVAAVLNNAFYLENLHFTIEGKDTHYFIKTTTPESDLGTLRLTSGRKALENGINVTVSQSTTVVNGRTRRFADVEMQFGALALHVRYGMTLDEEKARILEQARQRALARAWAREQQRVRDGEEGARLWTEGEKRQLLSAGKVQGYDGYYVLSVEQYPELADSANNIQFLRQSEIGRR
# Chain of Bone marrow stromal antigen 2 (Q10589 1-161 limits assumed): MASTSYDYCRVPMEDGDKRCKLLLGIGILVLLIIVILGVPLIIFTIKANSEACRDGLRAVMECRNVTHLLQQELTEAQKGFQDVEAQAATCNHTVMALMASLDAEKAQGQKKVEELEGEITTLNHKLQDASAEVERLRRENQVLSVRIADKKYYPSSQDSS
molecule,measurement,setting,value
"MLSTKKTKTHDHYPCGRMRDPGWHDWRACLTHQGIEEDEWPV [SG-3-0020, Bifidobacterium polypeptide]",Enrichment ratio,[1],69.1
same,Enrichment ratio,[2],1.9
same,Enrichment ratio,[3],100.0
same,Enrichment ratio,[4],1.9
same,Enrichment ratio,[5],67.2
same,Enrichment ratio,[6],100.0
same,Enrichment ratio,[7],34.5
same,Enrichment ratio,[8],2.1
same,Enrichment ratio,[9],3.4
same,number of CD4+ and/or CD8+ T cells having a CD25+/FoxP3− phenotype,[10],increase
same,human targets confirmed via CRISPR KO experiments,[11],"CD2, BST2, and TNF"
B1,"% Agonist Activity, PathHunter β-arrestin",[12],28%
same,"% Antagonist Activity, PathHunter β-arrestin",[12],11%
same,"% Agonist Activity, PathHunter β-arrestin",[13],0%
same,"% Antagonist Activity, PathHunter β-arrestin",[13],67%
same,"% Agonist Activity, PathHunter β-arrestin",[14],2%
same,"% Antagonist Activity, PathHunter β-arrestin",[14],-48%
same,"% Agonist Activity, PathHunter β-arrestin",[15],-14%
same,"% Antagonist Activity, PathHunter β-arrestin",[15],99%
same,"% Agonist Activity, PathHunter β-arrestin",[16],-4%
same,"% Antagonist Activity, PathHunter β-arrestin",[16],-32%
same,"% Agonist Activity, PathHunter β-arrestin",[17],66%
same,"% Antagonist Activity, PathHunter β-arrestin",[17],-9%
same,"% Agonist Activity, PathHunter β-arrestin",[18],-137%
same,"% Antagonist Activity, PathHunter β-arrestin",[18],61%
same,"% Agonist Activity, PathHunter β-arrestin",[19],3%
same,"% Antagonist Activity, PathHunter β-arrestin",[19],77%
B2,binding result,[20],binds
